Test [1] deals with BCMA protein of Cynomolgus macaque (Cynomolgus macaque, UniProt A0A2K5UD97 1-53). As to the kind of experiment: Octet off-rate.
For test [2], the target named is T1, human BCMA ECD protein (Abcam ab50089) (human, UniProt Q02223 1-54).
T1 chain: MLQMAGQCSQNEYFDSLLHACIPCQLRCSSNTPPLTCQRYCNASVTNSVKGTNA
In words: Octet off-rate.

Some results are limits rather than exact numbers.

Sequence of BCMA protein of Cynomolgus macaque (A0A2K5UD97 entry or part of it): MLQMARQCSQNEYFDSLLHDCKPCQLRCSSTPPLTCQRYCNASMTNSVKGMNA

B1: heavy chain-only anti-BCMA antibody (UniAb) with the heavy chain variable region of SEQ ID NO: 13 (antibody, V domains shown)
VH: QVQLVESGGGLVQPGGSLRLSCAASGFTFSSHAMTWVRQAPGKGLEWVAAISGSGDFTHYADSVKGRFTISRDNSKNTVSLQMNNLRAEDTAVYYCAKDEDGGSLLGYRGQGTLVTVSS
Turning to B1, the values for the koff in test [1] and in test [2] were 0.00189 s⁻¹ and < 1e-07 s⁻¹, respectively.

B2: heavy chain-only anti-BCMA antibody (UniAb) with the heavy chain variable region of SEQ ID NO: 12 (antibody, V domains shown)
VH: QVQLVESGGGLVQPGGSLRLSCAASGFTFTNHAMSWVRQAPGKGLELVSSISGNGRTTYYADSVKGRFTISRDISKNTLDLQMNSLRAEDTAVYYCAKDGGETLVDSRGQGTLVTVSS
For the molecule B2, the koff was 0.000941 s⁻¹ in test [1] and < 1e-07 s⁻¹ in test [2].

B3: heavy chain-only anti-BCMA antibody (UniAb) with the heavy chain variable region of SEQ ID NO: 15 (antibody, V domains shown)
VH: EVQLLESGGGLVQPGGSLRLSCAASGFTFSSYAMSWVRQAPGKGLEWVSSISGSGDYIYYADSVKGRFTISRDISKNTLYLQMNSLRAEDTAVYYCAKEGTGANSSLADYRGQGTLVTVSS
B3: the koff is 0.000322 s⁻¹ in test [1] and < 1e-07 s⁻¹ in test [2].

(Values after US20210147564A1 (published 2021).)
